# According to publication PMC10288592:
# Target: PYCO1(452 to 592) (Phaeodactylum tricornutum)
# Experiment: cryo-EM structure; single particle cryo-EM of the Rubisco–PYCO1(452 to 592) complex
substance,measurement,value
PYCO1(452 to 592) (domain or fragment),stoichiometry N,4
